# Measurements taken from the supplement of paper PMC10567573.
# ± gives the standard deviation.
# Experiment: protein stability index of a GFP-peptide fusion (GPS, HEK-293T) (PSI 1-6); higher = more stable
# [1] = treatment: DMSO, c terminus: a fixed tail appended
# [2] = treatment: MLN4924 1 uM, 8 h, c terminus: a fixed tail appended
# 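Also: 24-mer peptide tiles fused after GFP, lentivirally expressed, FACS-sorted into six equal bins by GFP/DsRed ratio, decoded by Illumina sequencing, PSI is the read-weighted mean bin number.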
Sequence,protein stability index [1],protein stability index [2],"protein stability index (treatment: DMSO, c terminus: native)","protein stability index (treatment: MLN4924 1 uM, 8 h, c terminus: native)"
AAEGEGSPPAVAAVAGPPAAAEVG [ANKRD17],5.63 ± 0.23,5.21 ± 0.43,–,–
AAKFPSGSQRARVVNTDHGSPEQL [SDE2],4.56 ± 0.44,4.81 ± 0.17,–,–
AALNNHPDIMNLLIKSGAHFDATN [FEM1C],2.41 ± 0.24,2.54 ± 0.3,–,–
AAPAAGLCGAGSEPSIAPTSCAGN [RSPH3],4.55 ± 0.25,4.68 ± 0.26,–,–
AARLLFNMAGVTFRKFIPKCSKIV [DCTD],1.97 ± 0.15,2 ± 0.18,–,–
AAVEGSGGSGGGSHHHHQSRGACT [KCNA4],4.97 ± 0.16,4.7 ± 0.71,–,–
AAWCLHHICTNYNSVCSKFRKEIK [RHOBTB1],2.23 ± 0.037,2.19 ± 0.28,–,–
ADGSPPLLPPGEPPLLGTFPRDHT [ANKRD40],4.8 ± 0.28,4.49 ± 0.21,–,–
ADIDHDQALAQAIKEAKEQHPDMS [EPB41L3],5.56 ± 0.17,5.51 ± 0.31,–,–
ADIPSVAFSSRLGGSRGAPGLLMA [DCAF4],2.83 ± 0.2,2.78 ± 0.51,–,–
AEAQKNMYFKTRLKCPRSLSGGR [ZNF396],–,–,2.72 ± 0.45,2.99 ± 0.44
AEDLGNLWENTRFTDCSFFVRGQE [SPOPL],3.69 ± 0.32,3.74 ± 0.24,–,–
AERLGVTFFEVSPLCNFNITESFT [RAB40B],2.13 ± 0.15,2.22 ± 0.16,–,–
AFAFQNTFPHSISAKNTSHPGSGT [SASS6],3.36 ± 0.39,3.45 ± 0.45,–,–
AFNQNSSLGRHKRTHTGEKPYTCS [ZNF8],3.42 ± 0.33,3.79 ± 0.49,–,–
AFPKMALQAKQDGKKDVSHSSPVD [LCOR],5.26 ± 0.14,5.16 ± 0.16,–,–
AFPYQYPPPPHPYNPHPGFPELGY [DVL3],2.35 ± 0.31,2.5 ± 0.35,–,–
AFTMAENLANCERLIEVEDMMVMG [SMTNL2],2.58 ± 0.35,3.24 ± 0.34,–,–
AGVGLSGGAAGAGWCIFVYNLSPE [ELAVL3],3.13 ± 0.71,2.71 ± 0.26,–,–
AHRTEFYRNLTHNPPSDFSFQNMN [STK38L],2.84 ± 0.34,2.88 ± 0.24,–,–
AIAPFQSAGSPPELQGLPELHEEC [NET1],4.99 ± 0.33,4.85 ± 0.14,–,–
AKDLPCDSKPESALGAPSKSPSSP [TBX5],5.49 ± 0.26,5.54 ± 0.2,–,–

Sequence,protein stability index [1],protein stability index [2],"protein stability index (treatment: DMSO, c terminus: native)","protein stability index (treatment: MLN4924 1 uM, 8 h, c terminus: native)"
AKPEVLSIQWPGKRSSRRVQRHNS [NECAB1],4.23 ± 0.2,4.37 ± 0.21,–,–
AKPRLAERMTTREKKVLEAGMGKV [HDAC6],4.38 ± 0.17,3.98 ± 0.2,–,–
ALAVCLSFFYPVLFVLFMFFGMAF [SOAT1],2.84 ± 0.46,2.94 ± 0.75,–,–
ALDEAAAALTRMRAESTANAGQSD [ANKRD17],5.49 ± 0.17,5.36 ± 0.25,–,–
ALNEQACRNGSSIQIAFEEVPQLP [C2CD2L],3.83 ± 0.38,4.02 ± 0.12,–,–
ALRKIIKTLAVKNEEIQSFIYSLK [FSD1],2.87 ± 0.45,2.89 ± 0.42,–,–
AMAYHHDSRRIFVGQDNGAVMEFH [WDFY1],3.08 ± 0.15,2.96 ± 0.32,–,–
ANCIVHRDLKPENILVTSGGTVKL [CDK4],3.23 ± 0.15,3.5 ± 0.32,–,–
APDSGRSAPYSAAFLELPHGSGGS [TBX6],4.3 ± 0.17,4.46 ± 0.066,–,–
APLSGPQALMLPPGSFWGLCQVAQ [VENTX],2.06 ± 0.28,2.27 ± 0.14,–,–
APPGSLVTKVTAVDADAGHNAWLS [PCDHGC5],3.848 ± 0.025,4 ± 0.19,–,–
AQLFMDHLFAGAEVILLVVMAYDR [OR4A15],2.2 ± 0.74,2.75 ± 1,–,–
AQQLLCDEQAPQRQRLLADLLHNV [DFFB],3.98 ± 0.16,3.92 ± 0.24,–,–
AREGGGCGRSEVRPVAPRRPRDAV [SMAD6],4.43 ± 0.26,4.36 ± 0.21,–,–
ARHNYNDLCPPIGRRAATALLWLS [GNAS],2.15 ± 0.43,2.27 ± 0.35,–,–
ARLLCRLQAFGETLLLELEQDSGV [ADAMTS4],2.66 ± 1.3,2.73 ± 0.29,–,–
ARLRPGLAVLGADERIFSLTRRLA [HAGHL],2.47 ± 0.14,2.78 ± 0.27,–,–
ARRLTRFTGVITQGRNSLWLSDWV [CPXM2],2.43 ± 0.24,2.38 ± 0.26,–,–
ARRTTRSEPIRRAGKSGTSTPTTP [MAP2],4.66 ± 0.12,4.8 ± 0.12,–,–
ASEFLEQSMSQTRELLLDGGYLQR [RSPH3],3.58 ± 0.43,3.55 ± 0.51,–,–
ASLGEKRDHHSTHYRASEEEPEYG [CHGB],5.37 ± 0.24,5.34 ± 0.11,–,–
ASTTRLYLRKGRGETRICKIYDSP [RAD51],2.94 ± 0.4,3.19 ± 0.31,–,–

Sequence,protein stability index [1],protein stability index [2],"protein stability index (treatment: DMSO, c terminus: native)","protein stability index (treatment: MLN4924 1 uM, 8 h, c terminus: native)"
ATAASSSASSPASVGDPCGGAICG [SLC25A25],4.9 ± 0.34,4.85 ± 0.11,–,–
ATFNCLNKRLAKYRMRNVHPKPKL [CLCN6],2.56 ± 0.15,2.8 ± 0.27,–,–
ATTNACEKPIGSCVTNPCGPRSRC [KRT33B],3.92 ± 0.17,4.14 ± 0.23,–,–
AVEWARNIPFFPDLQITDQVALLR [NR2F2],2.64 ± 0.2,2.79 ± 0.22,–,–
AVGQDCYTRIWSLHDARLLRTIPS [DCAF4],2.48 ± 0.36,2.39 ± 0.26,–,–
AVGYSSDSETLDLEEAEGAVGYQP [NFE2L1],5.24 ± 0.1,5.33 ± 0.21,–,–
AVIKSNHSYCRMFLQRGADTNLGR [ASB7],2.26 ± 0.16,2.41 ± 0.14,–,–
AVMFFIVFFAYAQLGYLLFGTQVE [PKD2L1],2.7 ± 0.48,2.73 ± 0.44,–,–
AVPAAATRTTSFKGTSPSSKYVKL [KCTD10],3.87 ± 0.2,3.99 ± 0.28,–,–
AVQGLNLRSPNNFLSYYRLTRFLS [CCND1],2.3 ± 0.18,2.36 ± 0.27,–,–
AVTSLSSQIQYMNTVVSTYVTTNV [TMEM106C],2.58 ± 0.67,2.51 ± 0.39,–,–
AWFLPMPQKSLFFHHIPSTCQRVN [SLC19A2],2.29 ± 0.48,2.23 ± 0.075,–,–
AWLTEEEPEPAEVTSTSQSPHSPD [DDIT3],5.59 ± 0.23,5.63 ± 0.21,–,–
AYALPAGLSAPARCLVRCLLRREP [TRIB3],2.23 ± 0.49,1.87 ± 0.31,–,–
AYHVPNRTLASGRLLSYRGERVAA [DNAAF3],3.31 ± 0.23,3.4 ± 0.14,–,–
CASFIRTRLLLQFTQPQQTSFALE [C8orf76],2.46 ± 0.28,2.7 ± 0.58,–,–
CGDELPWTLQRRLTRLRTASGHEP [PLEKHN1],2.68 ± 0.12,2.7 ± 0.34,–,–
CGSRRERCGYRLVRRQRSADEQLH [ESR2],2.79 ± 0.36,2.93 ± 0.29,–,–
CICWSPFLVTMANIGINGNHSLET [PTGFR],2.82 ± 0.26,2.84 ± 0.73,–,–
CKDFLCQFCAQRFGRKDHLTRHTK [PLAGL1],2.63 ± 0.25,3.09 ± 0.64,–,–
CLAGCEGAHEQVDFKDFYPAIADL [P3H4],3.59 ± 0.48,3.68 ± 0.26,–,–
